We go through 11 molecules from patent publication US20240409643A1, “ANTI-NMDAR2B ANTIBODIES, ANTIBODY-DRUG CONJUGATES, AND CHIMERIC ANTIGEN RECEPTORS, AND COMPOSITIONS AND METHODS OF USE” (THE TRUSTEES OF DARTMOUTH COLLEGE, priority 2021, published 2024).

Entries after “also recorded” stand apart in the source; their conditions may differ. Ends that are not written are not given here. * marks the point of attachment. 125I = [125I]*

The test system of one data set is LNCAP cells. Briefly: LNCAP cell viability assay (AlamarBlue). It counts as cell-based. The note with it: for Effect on LNCAP cell viability: 48 hours incubation, % of fluorescence of vehicle treated cells. How it is done: LNCAP cells were plated in 96 well plates at 1-2×10^4 cells/well. The cells were incubated with PBS with glycine containing albumin (1.25 mg/ml) in the presence of different concentrations of a NMDAR receptor antagonist, MK-801 (also known as dizocilpine) or memantine, dilutions of the anti-NMDAR1 antisera described in Example 1 or anti-NMDAR1 IgG isolated from such antisera, or vehicle only. Each group was run in quadruplicate. AlamarBlue® was later added to each well following an incubation period of 48 hours, and fluorescent readings were taken with excitation at 530-560 nm and emission at 590 nm and above on a SYNERGY™ HT Multi Detection Reader to (BioTek®). Cell viability (%) was calculated as % of fluorescence of vehicle treated cells at 48 hours.

Data set [1] has as its system NCI H82 cells. Briefly: In vivo combination treatment of NCI H82 tumors in nu/nu mice: cyclophosphamide followed by ifenprodil. The note with it: cyclophosphamide 75 mg/kg body weight daily for 3 days. The protocol: Anti-cancer agent: Cyclophosphamide, an alkylating agent, was used as an exemplary anti-cancer agent.
(§1) Anti-NMDA receptor agent: ifenprodil was used as an exemplary NMDA receptor antagonist
Mouse treatment: Male nu/nu mice were injected subcutaneously with NCI H82 cells (about 10^7 cells/mouse). […] Animals were divided into two groups. […] The other group was treated with saline vehicle. Changes in the tumor size were recorded daily.

For data set [2] the following is noted: cited from earlier work.
In data set [3] the test system is NCI H82 cells. Briefly: In vivo treatment of NCI H82 tumors in nu/nu mice with ifenprodil. How it is done: as §1
Mouse treatment: Male nu/nu mice were injected subcutaneously with NCI H82 cells (about 10^7 cells/mouse). Tumors became obvious after 2-3 weeks and commenced growing rapidly. Animals were divided into two groups. […] The other group was treated with saline vehicle. Changes in the tumor size and body weight were recorded daily.

The target of data set [4] is T1, Biotinylated NMDAR2B immunogen peptide (human, also: biotinylated, site not given here).
T1 construct: also called biotinylated peptide
T1 peptide: YKDAHEKDDF-NH2
In words: ELISA, Fab captured on anti-human IgG, streptavidin-HRP detection. The protocol:
(§2) ELISA assay: 96 well plates (ELISA Microlon 66 (Greiner Bio-one); #655061) were coated with Affinipure anti-human IgG antibodies (which bind to Fabs) (Jackson Immunoresearch Laboratories; #109-005-0060). Each well was added with a 50 μl volume containing 5 ng or 10 ng of an appropriate Fab and another […] volume containing the NMDAR2B immunogen peptide in a range of 10 μg to 10 ng, followed by incubation at 4° C. for 24-48 hours. Plates were washed, and each well was incubated with the biotinylated peptide at 100 ng/ml for 30 minutes to one hour and then with HRP-conjugated streptavidin (Thermo Industries; Product #N100) was added at 1:10,000 dilution for 30 minutes. Plates were washed and incubated with a mixture of 0.007% H₂O₂ and Amplex® Ultrared Reagent (Molecular Probes) for one hour, and fluorescence was read at excitation at 550 nm and fluorescence at 590 nm on a SYNERGY™ HT Multi Detection Reader to (BioTek®).

For data set [5], the target named is T2, 125I-labeled NMDAR2B immunogen peptide (human).
T2 construct: also called ^125I-labeled (radiolabel on the N-terminal tyrosine) NMDAR2B immunogen peptide
T2 peptide: Y(125I)KDAHEKDDF-NH2
Briefly: radioimmunoassay with 125I-labeled and free peptide. The protocol: Radioimmunoassay: Radioimmunoassay on Fab3 through Fab10 was performed using ¹²⁵I-labeled (radiolabel on the N-terminal tyrosine) and free (no radiolabel or additional conjugation) NMDAR2B immunogen peptides.

Data set [6] has as its target T3, NMDAR2B immunogen peptide, free (YKDAHEKDDF-amide) (human).
T3 construct: Free form: no radiolabel and no further conjugation; also called free NMDAR2B immunogen peptide; free peptide
T3 peptide: YKDAHEKDDF-NH2
In words: competition ELISA against peptide coupled to biotinylated BSA. The protocol:
as §2
ELISA assay: ELISA as in Example 6 was performed using the NMDAR2B immunogen peptide coupled to biotinylated BSA and then, to test competition, the free NMDAR2B immunogen peptide.

Data set [7] addresses T4, BSA-coupled NMDAR2B immunogen peptide (human; bovine, UniProt P02769 25-607, carrier, cross-linked to the peptide with glutaraldehyde; C-terminal amide; coupled to BSA with glutaraldehyde).
T4 construct: also called NMDAR2B immunogen peptide coupled to BSA; unlabeled BSA-coupled NMDAR2B immunogen peptide
Briefly: competition displacement ELISA, additional studies (FIG. 7B). How it is done: as §2
ELISA assay: ELISA as in Example 6 was performed using the NMDAR2B immunogen peptide coupled to BSA (as prepared in Example 4) and the NMDAR2B immunogen peptide coupled to biotinylated BSA (as prepared in Example 7). Competition displacement curves were generated as repeated points in quadruplicate, and dissociation constants for respective Fabs to the BSA-coupled NMDAR2B immunogen peptide were calculated.

T4 sequence (P02769 25-607 limits assumed): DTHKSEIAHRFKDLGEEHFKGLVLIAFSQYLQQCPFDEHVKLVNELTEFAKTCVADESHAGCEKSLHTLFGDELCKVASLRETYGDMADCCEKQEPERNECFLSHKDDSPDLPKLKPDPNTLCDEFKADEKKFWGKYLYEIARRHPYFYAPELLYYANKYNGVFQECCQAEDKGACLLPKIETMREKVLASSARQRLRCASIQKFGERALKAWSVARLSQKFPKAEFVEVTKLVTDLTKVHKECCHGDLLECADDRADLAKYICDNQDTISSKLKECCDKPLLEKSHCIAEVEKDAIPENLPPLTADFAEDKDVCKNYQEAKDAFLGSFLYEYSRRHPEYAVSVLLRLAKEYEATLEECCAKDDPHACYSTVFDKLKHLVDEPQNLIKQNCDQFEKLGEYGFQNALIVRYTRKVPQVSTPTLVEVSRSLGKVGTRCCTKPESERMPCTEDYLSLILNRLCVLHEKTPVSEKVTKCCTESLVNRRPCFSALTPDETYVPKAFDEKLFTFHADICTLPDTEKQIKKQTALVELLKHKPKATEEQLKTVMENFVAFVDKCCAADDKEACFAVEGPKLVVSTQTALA

Take `C[C@]12N[C@H](Cc3ccccc31)c1ccccc12` [MK-801, dizocilpine]: the “Effect on LNCAP cell viability” value in the data set on LNCAP cells is reported as “reduced cell viability in a does-dependent manner”. The “Concentration at which the reduction of cell viability was statistically significant (p<0.01)” value in the data set on LNCAP cells (LNCAP cells, 48 hours) is above 300 pM.
For `O=P1(N(CCCl)CCCl)NCCCO1` (centres unmarked) [cyclophosphamide], the “Effect of cyclophosphamide treatment on tumor growth” value in the data set on NCI H82 cells [1] was “does not inhibit tumor growth beyond the time of cyclophosphamide administration; also recorded: slowed but did not stop tumor growth”.
For `CC(C(O)c1ccc(O)cc1)N1CCC(Cc2ccccc2)CC1` (centres unmarked) [ifenprodil], the ED50 in mice entry in data set [2] is “about 350 mg/kg body weight”. Further, in the data set with NCI H82 cells [3] (animals that only received ifenprodil but not cyclophosphamide, after a day of decrease in size), the “Tumor growth with ifenprodil alone” value is “continued to grow”. The “Time for tumors to grow back to their original size” value with NCI H82 cells [3] (ifenprodil 2.5 mg/kg body weight intraperitoneally once daily) is listed as “about 10 days”. Further, the “Tumor growth relative to original size” value with NCI H82 cells [3] (ifenprodil 2.5 mg/kg body weight intraperitoneally once daily, by two weeks of treatment, saline controls >6 times) is below 2 times their original size. In the data set with NCI H82 cells [3] (ifenprodil 2.5 mg/kg body weight intraperitoneally once daily, in about a day), the “Tumor size relative to original size after initial shrinkage” value was “about 80%”. Moreover, the “Body weight versus saline control” value in the data set on NCI H82 cells [3] (over 8 days of treatment) is listed as “no differences between groups”.
For `CC12CC3CC(C)(C1)CC(N)(C3)C2` [memantine], in the data set with LNCAP cells, the “Effect on LNCAP cell viability” value is recorded as “reduced cell viability in a does-dependent manner”.

B1: Fab10 (Fab, V domains shown)
VH: EVQLVESGGGLVQPGGSLRLSCAASGFNLYSSYMHWVRQAPGKGLEWVASISSSYGYTYYADSVKGRFTISADTSKNTAYLQMNSLRAEDTAVYYCARTVRGSKKPYFSGWAMDYWGQGTLVTVSS
VL: DIQMTQSPSSLSASVGDRVTITCRASQSVSSAVAWYQQKPGKAPKLLIYSASSLYSGVPSRFSGSRSGTDFTLTISSLQPEDFATYYCQQGSYLITFGQGTKVEIK
notes: also called Ab10 (IgG form with the same VH and VL)
In the case of B1, the binding result in data set [4], in data set [5] and in data set [6] was “no binding” each time.

B2: Fab5 (Fab, V domains shown)
VH: EVQLVESGGGLVQPGGSLRLSCAASGFNLYSSYMHWVRQAPGKGLEWVASIYSSYSSTYYADSVKGRFTISADTSKNTAYLQMNSLRAEDTAVYYCARTVRGSKKPYFSGWAMDYWGQGTLVTVSS
VL: DIQMTQSPSSLSASVGDRVTITCRASQSVSSAVAWYQQKPGKAPKLLIYSASSLYSGVPSRFSGSRSGTDFTLTISSLQPEDFATYYCQQGAGLITFGQGTKVEIK
notes: also called Ab5 (IgG form with the same VH and VL)
As to B2, the binding result in data set [4], in data set [5] and in data set [6] was “no binding” in each case.

B3: Fab6 (Fab, V domains shown)
VH: EVQLVESGGGLVQPGGSLRLSCAASGFNIYSSYIHWVRQAPGKGLEWVASISSSYGYTYYADSVKGRFTISADTSKNTAYLQMNSLRAEDTAVYYCARTVRGSKKPYFSGWAMDYWGQGTLVTVSS
VL: DIQMTQSPSSLSASVGDRVTITCRASQSVSSAVAWYQQKPGKAPKLLIYSASSLYSGVPSRFSGSRSGTDFTLTISSLQPEDFATYYCQQGGSLITFGQGTKVEIK
notes: also called Ab6 (IgG form with the same VH and VL)
On to B3, for which the binding result in data set [4], in data set [5] and in data set [6] was “no binding” each time.

B4: Fab7 (Fab, V domains shown)
VH: EVQLVESGGGLVQPGGSLRLSCAASGFNFSSSSIHWVRQAPGKGLEWVASISSSYGYTYYADSVKGRFTISADTSKNTAYLQMNSLRAEDTAVYYCARTVRGSKKPYFSGWAMDYWGQGTLVTVSS
VL: DIQMTQSPSSLSASVGDRVTITCRASQSVSSAVAWYQQKPGKAPKLLIYSASSLYSGVPSRFSGSRSGTDFTLTISSLQPEDFATYYCQQGSHLITFGQGTKVEIK
notes: also called Ab7 (IgG form with the same VH and VL)
Consider B4, for which the binding result in data set [4], in data set [5] and in data set [6] was “no binding” throughout.

B5: Fab8 (Fab, V domains shown)
VH: EVQLVESGGGLVQPGGSLRLSCAASGFNIYYSYMHWVRQAPGKGLEWVASISSSYGYTYYADSVKGRFTISADTSKNTAYLQMNSLRAEDTAVYYCARTVRGSKKPYFSGWAMDYWGQGTLVTVSS
VL: DIQMTQSPSSLSASVGDRVTITCRASQSVSSAVAWYQQKPGKAPKLLIYSASSLYSGVPSRFSGSRSGTDFTLTISSLQPEDFATYYCQQASYLITFGQGTKVEIK
notes: also called Ab8 (IgG form with the same VH and VL)
Consider B5, for which the binding result in data set [4], in data set [5] and in data set [6] was “no binding” throughout.

B6: Fab9 (Fab, V domains shown)
VH: EVQLVESGGGLVQPGGSLRLSCAASGFNLSYSSMHWVRQAPGKGLEWVASISPYSGSTYYADSVKGRFTISADTSKNTAYLQMNSLRAEDTAVYYCARYYWYYYYGFDYWGQGTLVTVSS
VL: DIQMTQSPSSLSASVGDRVTITCRASQSVSSAVAWYQQKPGKAPKLLIYSASSLYSGVPSRFSGSRSGTDFTLTISSLQPEDFATYYCQQYVGYGSPITFGQGTKVEIK
notes: also called Ab9 (IgG form with the same VH and VL)
B6: the binding result in data set [4], in data set [5] and in data set [6] was “no binding” each time. The Kd in data set [7] was around 5 nM.

B7: Fab4 (Fab, V domains shown)
VH: EVQLVESGGGLVQPGGSLRLSCAASGFNLYYYSIHWVRQAPGKGLEWVAYISSYYGYTYYADSVKGRFTISADTSKNTAYLQMNSLRAEDTAVYYCARYYPGGWHAFDYWGQGTLVTVSS
VL: DIQMTQSPSSLSASVGDRVTITCRASQSVSSAVAWYQQKPGKAPKLLIYSASSLYSGVPSRFSGSRSGTDFTLTISSLQPEDFATYYCQQYYGYGYPITFGQGTKVEIK
notes: also called Ab4 (IgG form with the same VH and VL)
With B7, the binding result in data set [4], in data set [5] and in data set [6] was “no binding” each time.
